Measured values as given in patent US20220389111A1 (SHANGHAI EPIMAB BIOTHERAPEUTICS, published 2022).
Substitutions are numbered along the chain they refer to. Numbers in names are those of the source. Like-named read-outs stand apart in the source and are kept apart here.

T1: huCD39-ECD-His (human, UniProt P49961 38-478)
T1 construct: also called C-terminally hexahistidine-tagged human CD39 extracellular domain
T1 sequence: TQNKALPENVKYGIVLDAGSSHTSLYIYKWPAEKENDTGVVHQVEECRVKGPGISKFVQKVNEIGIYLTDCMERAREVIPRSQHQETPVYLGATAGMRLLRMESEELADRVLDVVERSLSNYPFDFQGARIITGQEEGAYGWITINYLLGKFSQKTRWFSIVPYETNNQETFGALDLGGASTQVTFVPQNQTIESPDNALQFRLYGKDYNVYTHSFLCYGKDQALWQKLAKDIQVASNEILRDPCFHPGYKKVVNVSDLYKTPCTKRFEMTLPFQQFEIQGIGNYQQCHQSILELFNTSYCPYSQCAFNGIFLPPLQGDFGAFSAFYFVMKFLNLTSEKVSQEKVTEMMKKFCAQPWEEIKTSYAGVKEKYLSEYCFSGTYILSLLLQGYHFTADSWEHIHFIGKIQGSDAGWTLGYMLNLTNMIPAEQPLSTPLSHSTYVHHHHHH

T2: human CD39 on the cell membrane (CHO-K1-human CD39 stable cell line); SK-MEL-28 melanoma cells; human CD4+ T … (human, UniProt P49961 1-510)
T2 construct: Overexpressed on CHO-K1 cells or endogenous on SK-MEL-28 / T cells; the assay field says which cells; also called huCD39; CHO-K1-huCD39
T2 sequence: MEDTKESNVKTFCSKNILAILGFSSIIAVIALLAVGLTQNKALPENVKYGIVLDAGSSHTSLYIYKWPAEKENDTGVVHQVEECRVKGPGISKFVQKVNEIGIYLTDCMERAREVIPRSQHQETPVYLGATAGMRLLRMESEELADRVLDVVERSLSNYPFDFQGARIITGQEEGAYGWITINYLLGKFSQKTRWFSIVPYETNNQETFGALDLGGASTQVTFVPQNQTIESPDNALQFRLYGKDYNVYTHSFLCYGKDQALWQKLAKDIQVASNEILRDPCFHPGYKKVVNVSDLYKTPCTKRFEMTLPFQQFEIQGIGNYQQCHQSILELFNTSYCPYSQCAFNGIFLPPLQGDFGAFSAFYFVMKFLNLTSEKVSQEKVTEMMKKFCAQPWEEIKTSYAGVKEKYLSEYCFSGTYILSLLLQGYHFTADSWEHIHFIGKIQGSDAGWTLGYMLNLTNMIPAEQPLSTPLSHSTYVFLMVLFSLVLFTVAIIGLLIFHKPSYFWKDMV

T3: cynomolgus monkey CD39 on CHO-K1 cells (cynomolgus monkey, UniProt A0A7N9DGH8 1-510)
T3 construct: whole, on cells; also called CHO-K1-cyCD39; CHO-K1-cyno CD39
T3 sequence: T2 sequence with V47I, F94Y, V221I, I230T, I329V, K368N, A391S, F489V, T490I

B1: HuEM0004-38-22 (antibody, human IgG1, kappa, L234A L235A, V domains shown)
VH: EVQLVQSGAEVKKPGASVKVSCKASGYTFTSFWMHWVRQAPGQGLEWMGNINPRNAATKYNEKFRSRVTLTADKSISTAYMELSRLRSDDTAVYYCAREDYDEIYYAMDSWGQGTTVTVSS
VL: ENVLTQSPATLSLSPGERATLSCSASSSVIYMYWFQQKPGQSPRVLIYDTSNLASGVPARFSGSGSGTDYTLTISSLEPEDFAVYYCQQWSTYPLTFGQGTKLEIKR
notes: humanized mAb638 with G55A
B2: HuEM0004-38-23 (antibody, human IgG1, kappa, L234A L235A, V domains shown)
VH: B1 VH with M48I
VL: B1 VL
notes: humanized mAb638 with G55A
B3: HuEM0004-38-21 (antibody, human IgG1, kappa, L234A L235A, V domains shown)
VH: B1 VH with L70M
VL: B1 VL
notes: humanized mAb638 with G55A
B4: mAb638 (antibody, V domains shown)
VH: QVQLQQPGTELVKPGASVKLSCKASGYTFTSFWMHWVKQRPGQGLEWIGNINPRNGATKYNEKFRSKVTLTADKTSSTAYMHLSSLTSEDSAVYYCAREDYDEIYYAMDSWGQGTSVTVSS
VL: QNVLTQSPAIMSASPGEKVTMTCSASSSVIYMYWFQQKPGSSPRVLIYDTSNLASGVPARFSGSGSGTSYSLTISRMEAEDAATYYCQQWSTYPLTFGAGTKLELK
notes: mouse anti-human CD39 hybridoma mAb, IgG1, κ
B5: mAb629 (antibody, V domains shown)
VH: QVQLKQSGPGLVRPSQSLSITCTVSGFSLTRFGIHWVRQSPGKGLEWLGVIWGGGSTDYDAGFISRLTITKDHSKSQVLFKINSLEADDTAMYYCATKDDDYLEAWFAHWGQGTLVTVSA
VL: NIVMTQSPKSVSMSVGERVTLSCKASENVGTYVSWYQQKSERSPRLLIYGASSRYTGVPDRFTGSGSATDFTLTISSVQAEDLADYHCGQSYSYPYTFGGGTKLEIK
notes: mouse anti-human CD39 hybridoma mAb, IgG2a, κ
B6: mAb636 (antibody, V domains shown)
VH: QVQLQQPGTELVMPGASVTLSCKASGYSFISYWMHWVKQRPGQGLEWIGEIDPSDDYTNYNQNFKGKATLTVDRSSSTAYMQLNSLTSEDSAVYYCAREENGIYYYNKGYLDVWGTGTTVTVSS
VL: DIVMTQTAFSNPVTLGTSASISCRSSKSLLHSNGITYLYWYLQKPGQSPQVLIYQMSNLASGVPDRFSCSGSGTDFTLRITRVEAEDVGFYYCAQNLELPYTFGGGTKLEMK
notes: as for B5

Assays:
[1] = biological target: T1, huCD39-ECD-His; assay: BLI (Octet RED96), antibody captured on AHC biosensor, antigen in solution
Description: (§1) Anti-CD39 antibodies were characterized for affinities and binding kinetics using the Octet®RED96 biolayer interferometry system (Pall FortéBio LLC). Purified anti-CD39 antibodies were captured by Anti-Mouse IgG Fc Capture (AMC) biosensors or Anti-Human IgG Fc Capture (AHC) biosensors at a concentration of 100 nM for 30 seconds. Biosensors were then dipped into running buffer (1X pH7.2 PBS, 0.05% Tween 20, 0.1% BSA) for 60 seconds to check baseline. Binding was measured by dipping sensors into purified recombinant human CD39 protein, 3-fold serial diluted from 200 nM, for 120 seconds. Dissociation was followed by dipping sensors into running buffer for 600 seconds. The association and dissociation curves were fitted to a 1:1 Langmuir binding model using Fortebio Data Analysis software (Pall FortéBio LLC).

[2] = biological target: T2, human CD39 on the cell membrane …; assay: FACS on SK-MEL-28 cells (endogenous human CD39)
Description: (§2) The ability of the purified antibodies to bind to cell membrane human CD39, cynomolgus monkey CD39, or mouse CD39 was determined by FACS analysis. CHO-K1 cells stably transfected to overexpress human CD39, cynomolgus monkey CD39, or mouse CD39 (CHO-K1-huCD39 cells, CHO-K1-cyCD39 cells, and CHOK1-muCD39 cells) were generated for use in this assay. Briefly, SK-MEL-28 melanoma cells (ATCC) or CD39 overexpressing stable CHO cell lines were resuspended in PBS containing 2% FBS (FACS buffer) and seeded at 1-5×10⁵ cells/well into U-bottomed plates. Anti-CD39 mAbs or isotype control antibodies diluted in FACS buffer were added to the wells and incubated for 1 hour at 4° C. After washing with FACS buffer, 1:1000 diluted Fluorescence-labeled secondary antibody (Life Technologies/ThermoFisher Scientific) were added and incubated for 30 min. at 4° C. Unbound secondary mAb was removed by washing with FACS buffer three times, and the samples were then read on a FACS instrument. The data were processed by GraphPad software.
(§3) Accordingly, a G55A mutation was introduced in the CDR-H2 in HuEM0004-38-17, -18, and -19 to generate HuEM0004-38-21 (SEQ ID NO:32 (VH) and SEQ ID NO:17 (VK)), HuEM0004-38-22 (SEQ ID NO:33 (VH) and SEQ ID NO:17 (VK)), and HuEM0004-38-23 (SEQ ID NO:34 (VH) and SEQ ID NO:17 (VK)). The three humanized anti-CD39 antibodies were characterized by FACS binding assay and for cell-based inhibition of ATPase activity.

[3] = biological target: T2, human CD39 on the cell membrane …; assay: cell-based or functional assay
[4] = biological target: T3, cynomolgus monkey CD39 on CHO-K1 cells; assay: FACS on CHO-K1-cyno CD39 cells
Description: as §2, §3

[5] = biological target: T2, human CD39 on the cell membrane …; assay: cell-based or functional assay; remark: listed apart in the source
[6] = biological target: T2, human CD39 on the cell membrane …; assay: FACS on CHO-K1-human CD39 cells
Description: as §2, §3

[7] = biological target: T3, cynomolgus monkey CD39 on CHO-K1 cells; assay: FACS on CHO-K1-cyno CD39 cells; remark: listed apart in the source
Description: as §2

[8] = biological target: T1, huCD39-ECD-His; assay: SPR (Biacore T200), antibody captured by anti-mouse IgG Fc, antigen in solution
Description: The binding kinetics of purified antibodies was determined by surface plasmon resonance-based measurements using a Biacore T200 instrument (GE Healthcare). Briefly, goat anti-mouse IgG Fc polyclonal antibody (Genway) was directly immobilized across a biosensor chip, and antibody samples were injected over reaction matrices at a flow rate of 5 μl/min. The association and dissociation rate constants, kₒₙ (M⁻¹s⁻¹) and koff(s⁻¹), respectively, were determined by making kinetic binding measurements of anti-CD39 antibody capture at five different concentrations of a recombinant human or mouse CD39 target protein (huCD39-ECD-His or muCD39-ECD-His). The equilibrium dissociation constant KD (M) of the reaction between antibodies and related target proteins was then calculated from the kinetic rate constants using the formula: KD=koff/kₒₙ. Binding affinities for murine anti-human CD39 antibodies mAb635 and mAb638 are shown in Table 9; binding affinity for rat anti-mouse CD39 antibody mAb605 is shown in Table 10.

[9] = biological target: T2, human CD39 on the cell membrane …; assay: cell-based or functional assay; remark: listed apart in the source
[10] = biological target: T1, huCD39-ECD-His; assay: BLI (Octet RED96), antibody captured on AMC biosensor, antigen in solution
Description: as §1

[11] = biological target: T2, human CD39 on the cell membrane …; assay: FACS on CHO-K1-human CD39 cells; remark: listed apart in the source
Description: as §2

Binder | Kd [1] [nM] | koff [1] [s⁻¹] | kon [1] [M⁻¹ s⁻¹] | EC50 [2] [nM] | IC50 (read off the curve), cell-surface hCD39 ATPase activity [3] [nM] | EC50 [4] [nM] | cell-based CD39 ATPase inhibition assay (SK-MEL-28 cells), concentration of essentially complete inhibition [5] [nM] | EC50 [6] [nM] | EC50 [7] [nM] | Kd [8] [nM] | koff [8] [s⁻¹] | kon [8] [M⁻¹ s⁻¹] | IC50 (read off the curve), cell-surface huCD39 ATPase activity [9] [nM] | Kd [10] [nM] | koff [10] [s⁻¹] | kon [10] [M⁻¹ s⁻¹] | EC50 [11] [nM]
B1 | 2.53 | 0.000348 | 138000 | 4.71 | ~0.2 | 7.42 | ~1 | 7.21 |  |  |  |  |  |  |  |  | 
B2 | 2.55 | 0.000365 | 143000 | 5.47 | ~0.2 | 7.18 | ~1 | 8.36 |  |  |  |  |  |  |  |  | 
B3 | 2.28 | 0.000316 | 139000 | 4.75 | ~0.2 | 6.14 | ~1 | 6.34 |  |  |  |  |  |  |  |  | 
B4 |  |  |  |  | ~0.4 |  |  |  | 19.2 | 0.203 | 0.000117 | 574000 | ~0.4 | 2.27 | 0.000426 | 188000 | 3.34
B5 |  |  |  |  |  |  |  |  | 2.18 |  |  |  | ~0.07 |  |  |  | 1.92
B6 |  |  |  |  |  |  |  |  | 10.6 |  |  |  |  |  |  |  | 12.7
